B1: MXI1 peptide 6-21 (Max-interacting protein 1), 16-mer library wild type / SIN3A PAH2 (SIN3A PAH domain, residues 295-383) (parent complex)
chain 1: MINVQRLLEAAEFLER
chain 2: SLQNNQPVEFNHAINYVNKIKNRFQGQPDIYKAFLEILHTYQKEQRNAKEAGGNYTPALTEQEVYAQVARLFKNQEDLLSEFGQFLPDA

Variants of: B1
Test: proteomic peptide phage display deep mutational scan (ProP-PD DMS): M13 P8 16-mer library selected against immobilised GST-tagged bait for four days (rounds), NGS of the eluted pools per day and pseudo-replica; bait immobilised on MaxiSorp plates (10 µg), library pre-cleared on GST, 2 h binding at 4 °C, five washes; one round per day, days 1-4; value from days 2 and 3

Variant | screen value
chain 1 MINVQRLLEAAENLER [chain 1 F13N] | 0.00134 average fractional NGS count over selection days 2 and 3 (reads of this peptide / all reads for the bait, averaged over …
chain 1 MIMVQRLLEAAEFLER [chain 1 N3M] | 0.0121 average fractional NGS count over selection days 2 and 3 (reads of this peptide / all reads for the bait, averaged over …
chain 1 MINVQRLLEAAEFLWR [chain 1 E15W] | 0.00827 average fractional NGS count over selection days 2 and 3 (reads of this peptide / all reads for the bait, averaged over …
chain 1 MINVQRLLEAAEFLLR [chain 1 E15L] | 0.0492 average fractional NGS count over selection days 2 and 3 (reads of this peptide / all reads for the bait, averaged over …
chain 1 MINVQRLYEAAEFLER [chain 1 L8Y] | 0.000651 average fractional NGS count over selection days 2 and 3 (reads of this peptide / all reads for the bait, averaged over …
chain 1 MINWQRLLEAAEFLER [chain 1 V4W] | 0.00027 average fractional NGS count over selection days 2 and 3 (reads of this peptide / all reads for the bait, averaged over …
chain 1 MINAQRLLEAAEFLER [chain 1 V4A] | 0.000356 average fractional NGS count over selection days 2 and 3 (reads of this peptide / all reads for the bait, averaged over …
chain 1 MINVQRLLEAANFLER [chain 1 E12N] | 0.000144 average fractional NGS count over selection days 2 and 3 (reads of this peptide / all reads for the bait, averaged over …
chain 1 MITVQRLLEAAEFLER [chain 1 N3T] | 0.00466 average fractional NGS count over selection days 2 and 3 (reads of this peptide / all reads for the bait, averaged over …
chain 1 MINVQVLLEAAEFLER [chain 1 R6V] | 0.000218 average fractional NGS count over selection days 2 and 3 (reads of this peptide / all reads for the bait, averaged over …
chain 1 MINVQRLLEANEFLER [chain 1 A11N] | 0.000651 average fractional NGS count over selection days 2 and 3 (reads of this peptide / all reads for the bait, averaged over …
chain 1 MINVQRLLEAAGFLER [chain 1 E12G] | 0.00105 average fractional NGS count over selection days 2 and 3 (reads of this peptide / all reads for the bait, averaged over …
chain 1 MYNVQRLLEAAEFLER [chain 1 I2Y] | 0.00134 average fractional NGS count over selection days 2 and 3 (reads of this peptide / all reads for the bait, averaged over …
chain 1 MINVQRLLEAAEFLYR [chain 1 E15Y] | 0.0114 average fractional NGS count over selection days 2 and 3 (reads of this peptide / all reads for the bait, averaged over …
chain 1 MINVQRLLEAAEFLRR [chain 1 E15R] | 0.000127 average fractional NGS count over selection days 2 and 3 (reads of this peptide / all reads for the bait, averaged over …
chain 1 MINVQRLLEAAEFLKR [chain 1 E15K] | 0.000258 average fractional NGS count over selection days 2 and 3 (reads of this peptide / all reads for the bait, averaged over …
chain 1 MSNVQRLLEAAEFLER [chain 1 I2S] | 0.000713 average fractional NGS count over selection days 2 and 3 (reads of this peptide / all reads for the bait, averaged over …
chain 1 MINVQRLLMAAEFLER [chain 1 E9M] | 0.000348 average fractional NGS count over selection days 2 and 3 (reads of this peptide / all reads for the bait, averaged over …
chain 1 MINVQRLLEAAEFLHR [chain 1 E15H] | 0.00272 average fractional NGS count over selection days 2 and 3 (reads of this peptide / all reads for the bait, averaged over …

Variant | screen value
chain 1 MINVQRLLIAAEFLER [chain 1 E9I] | 0.000125 average fractional NGS count over selection days 2 and 3 (reads of this peptide / all reads for the bait, averaged over …
chain 1 MINVQRLLEAQEFLER [chain 1 A11Q] | 0.000778 average fractional NGS count over selection days 2 and 3 (reads of this peptide / all reads for the bait, averaged over …
chain 1 MINVQRLLFAAEFLER [chain 1 E9F] | 0.000875 average fractional NGS count over selection days 2 and 3 (reads of this peptide / all reads for the bait, averaged over …
chain 1 MINVQRLLEAAEFHER [chain 1 L14H] | 0.00159 average fractional NGS count over selection days 2 and 3 (reads of this peptide / all reads for the bait, averaged over …
chain 1 MINVQRLLEAAEVLER [chain 1 F13V] | 0.000201 average fractional NGS count over selection days 2 and 3 (reads of this peptide / all reads for the bait, averaged over …
chain 1 PINVQRLLEAAEFLER [chain 1 M1P] | 0.000146 average fractional NGS count over selection days 2 and 3 (reads of this peptide / all reads for the bait, averaged over …
chain 1 MINVQRYLEAAEFLER [chain 1 L7Y] | 0.00109 average fractional NGS count over selection days 2 and 3 (reads of this peptide / all reads for the bait, averaged over …
chain 1 MPNVQRLLEAAEFLER [chain 1 I2P] | 0.000427 average fractional NGS count over selection days 2 and 3 (reads of this peptide / all reads for the bait, averaged over …
chain 1 MINVQRLLEAGEFLER [chain 1 A11G] | 0.000249 average fractional NGS count over selection days 2 and 3 (reads of this peptide / all reads for the bait, averaged over …
chain 1 MINVQRLLEAAEFLMR [chain 1 E15M] | 8.82e-05 average fractional NGS count over selection days 2 and 3 (reads of this peptide / all reads for the bait, averaged over …
chain 1 MINVQGLLEAAEFLER [chain 1 R6G] | 0.000834 average fractional NGS count over selection days 2 and 3 (reads of this peptide / all reads for the bait, averaged over …
chain 1 MINVQRLLEAAHFLER [chain 1 E12H] | 0.00554 average fractional NGS count over selection days 2 and 3 (reads of this peptide / all reads for the bait, averaged over …
chain 1 MINVQRLTEAAEFLER [chain 1 L8T] | 0.000156 average fractional NGS count over selection days 2 and 3 (reads of this peptide / all reads for the bait, averaged over …
chain 1 MINVQRLLEAHEFLER [chain 1 A11H] | 0.000274 average fractional NGS count over selection days 2 and 3 (reads of this peptide / all reads for the bait, averaged over …
chain 1 MINIQRLLEAAEFLER [chain 1 V4I] | 0.000288 average fractional NGS count over selection days 2 and 3 (reads of this peptide / all reads for the bait, averaged over …
chain 1 MINNQRLLEAAEFLER [chain 1 V4N] | 0.000273 average fractional NGS count over selection days 2 and 3 (reads of this peptide / all reads for the bait, averaged over …
chain 1 MINVYRLLEAAEFLER [chain 1 Q5Y] | 0.00574 average fractional NGS count over selection days 2 and 3 (reads of this peptide / all reads for the bait, averaged over …
chain 1 MINVQRLLEAAEYLER [chain 1 F13Y] | 0.00195 average fractional NGS count over selection days 2 and 3 (reads of this peptide / all reads for the bait, averaged over …
chain 1 MINVQRLLEAATFLER [chain 1 E12T] | 0.000504 average fractional NGS count over selection days 2 and 3 (reads of this peptide / all reads for the bait, averaged over …

Variant | screen value
chain 1 MINVQRLLGAAEFLER [chain 1 E9G] | 0.000184 average fractional NGS count over selection days 2 and 3 (reads of this peptide / all reads for the bait, averaged over …
chain 1 MINVQRLLEAAELLER [chain 1 F13L] | 0.00028 average fractional NGS count over selection days 2 and 3 (reads of this peptide / all reads for the bait, averaged over …
chain 1 MINVSRLLEAAEFLER [chain 1 Q5S] | 0.000556 average fractional NGS count over selection days 2 and 3 (reads of this peptide / all reads for the bait, averaged over …
chain 1 MINVFRLLEAAEFLER [chain 1 Q5F] | 0.000275 average fractional NGS count over selection days 2 and 3 (reads of this peptide / all reads for the bait, averaged over …
chain 1 MINVARLLEAAEFLER [chain 1 Q5A] | 0.000986 average fractional NGS count over selection days 2 and 3 (reads of this peptide / all reads for the bait, averaged over …
chain 1 MIVVQRLLEAAEFLER [chain 1 N3V] | 0.000212 average fractional NGS count over selection days 2 and 3 (reads of this peptide / all reads for the bait, averaged over …
chain 1 MINVQRLLEAAEGLER [chain 1 F13G] | 0.00169 average fractional NGS count over selection days 2 and 3 (reads of this peptide / all reads for the bait, averaged over …
chain 1 FINVQRLLEAAEFLER [chain 1 M1F] | 0.000314 average fractional NGS count over selection days 2 and 3 (reads of this peptide / all reads for the bait, averaged over …
chain 1 MINVQRLHEAAEFLER [chain 1 L8H] | 0.000323 average fractional NGS count over selection days 2 and 3 (reads of this peptide / all reads for the bait, averaged over …
chain 1 MINVQRLLEAAEFLPR [chain 1 E15P] | 0.000251 average fractional NGS count over selection days 2 and 3 (reads of this peptide / all reads for the bait, averaged over …
chain 1 MINVQRLLEAAEFWER [chain 1 L14W] | 0.000239 average fractional NGS count over selection days 2 and 3 (reads of this peptide / all reads for the bait, averaged over …
chain 1 MINVQRLLEAAEWLER [chain 1 F13W] | 0.00114 average fractional NGS count over selection days 2 and 3 (reads of this peptide / all reads for the bait, averaged over …
chain 1 MINVQRWLEAAEFLER [chain 1 L7W] | 0.00101 average fractional NGS count over selection days 2 and 3 (reads of this peptide / all reads for the bait, averaged over …
chain 1 MINVQRLQEAAEFLER [chain 1 L8Q] | 0.000344 average fractional NGS count over selection days 2 and 3 (reads of this peptide / all reads for the bait, averaged over …
chain 1 MINVQRLLEAAEFLNR [chain 1 E15N] | 0.000504 average fractional NGS count over selection days 2 and 3 (reads of this peptide / all reads for the bait, averaged over …
chain 1 MINVQRLLEAAIFLER [chain 1 E12I] | 0.000347 average fractional NGS count over selection days 2 and 3 (reads of this peptide / all reads for the bait, averaged over …
chain 1 MINVQRLLEAAEFMER [chain 1 L14M] | 0.000829 average fractional NGS count over selection days 2 and 3 (reads of this peptide / all reads for the bait, averaged over …
chain 1 MINVQRLVEAAEFLER [chain 1 L8V] | 0.000127 average fractional NGS count over selection days 2 and 3 (reads of this peptide / all reads for the bait, averaged over …

— paper PMC12102759 (2025)
